Test: soluble on expression in E. coli; label from the status in PepcDB or PDB records

Sequence | soluble on expression in E. coli
MRVTDFSFELPESLIAHYPQPERSRCRLLSLEGPTGALTHGTFTDLLDKLNPGDLLVFNNTRVIPARLFGRKASGGKIEVLVERMLDDKRILAHIRASKAPKPGTELLLGDDESIHATMTARHGALFEVEFNDPRPVLDILNAIGHMPLPPYIDRPDEDADRELYQTVYSEKPGAVAAPTAGLHFDEPLLAALREKGVEMAFVTLHVGAGTFQPVRVDTIEDHIMHSEYAEVPQEVVDAVLAAKARGNRVIAVGTTSVRSLESAAQAAKSDLIEPFFGDTQIFIYPGYQYKVIDALITNFHLPESTLIMLVSAFAGYQHTMNAYKTAVEQKYRFFSYGDAMFITYNPQAISERP | not soluble
MGSDKIHHHHHHMLGRSANGIFWLFRYLERAENSARAIEAGFRLALTRDASDASDEWRSLIVTLGLQNAYEAKYGPGFTGPHVFNFILRDRENPGSVLAMMEMARTNARMVRAGITREVWESVNDGWMKLREALARPVTETRLGDVLDLVRRQSTQVRGAIEGTMLRNEIYNFARLGSFIERADNTARILDVKYYVLLPSVSYVGSSLDNVQWENVLRSLAGERAYRWLNAGRMDPRGIAEFLILDERFPRSLAFCYSKLRSNLASLAREYGGEMHSHEILRDADTQLHTATIEAIFDQGLHEFIGKFIACNTALALQIQRDYRFTE | not soluble
MSTRPEVFDLIVIGGGPGGSTLASFVAMRGHRVLLLEREAFPRHQIGESLLPATVHGICAMLGLTDEMKRAGFPIKRGGTFRWGKEPEPWTFGFTRHPDDPYGFAYQVERARFDDMLLRNSERKGVDVRERHEVIDVLFEGERAVGVRYRNTEGVELMAHARFIVDASGNRTRVSQAVGERVYSRFFQNVALYGYFENGKRLPAPRQGNILSAAFQDGWFWYIPLSDTLTSVGAVVSREAAEAIKDGHEAALLRYIDRCPIIKEYLAPATRVTTGDYGEIRIRKDYSYCNTSFWKNGMALVGDAACFVDPVFSSGVHLATYSALLVARAINTCLAGEMSEQRCFEEFERRYRREYGNFYQFLVAFYDMNQDTDSYFWSARKIINTEERANEAFVRLIAGRSNLDEPVFQSVAKDFFTEREGFGAWFGGLVTSMAKGDGGGLMVGEGATDATESTGFAPENFMQGFTREITELQHLAMFGEDRGPETPLWSGGLVPSRDGLAWAVESGEDAAG | soluble
MSLRVTLTDVARAAGVSKSTVSLVLNDSSLIKKETQQKVQQAIEQLGYVYNRFAANLRSQKSLTIGVVIDDLINPFFAEFTMGLEMTLAEHGFITVMSNTSQRSDRQKQVLDTLLEHHVAGIVLCPVNSTSEADLQRYANSSTPLLITMRPLDWQQLPVDYVGVDSHAGVREATEYLIQQGHRDIVFIGGLTHHMRYQGYLEAMNHHGLQPWSTDAFSLRAEPTQANGYQLMQQLLDMPSPPTAVICYNDLMAFGAESALGERGLFAGEDISLIGNDGVAACAYSNPPLTTIAVEPLALGKQAAQQILRRIAQPDAPLSHYIYRPTLQIRASTGKEGHHHHHH | soluble
MSLGVTMHDVAKAAGVSAITVSRVLNQPQQVSEQLREKVMQAVDALAYVPSRSASTLASAKSRTVLVLIPSLANTVFLETLTGIETVLDAAGYQMLIGNSHYDAGQELQLLRAYLQHRPDGVLITGLSHAEPFERILSQHALPVVYMMDLADDGRCCVGFSQEDAGAAITRHLLSRGKRRIGFLGAQLDERVMKRLDGYRAALDAADCRDAGLEWLDPQPSSMQMGADMLDRALAERPDCDALFCCNDDLAIGALARSQQLGIAVPERLAIAGFNDLQPAAWCTPPLTTVATPRRDIGVHAAKALLQLIDGEEPASRRADLGFRLMLRRSSEGHHHHHH | soluble
MTVYLRKAEPSDLPDILAIIEDGRRTLQKSGIPQWQNGDGPNQEILAKDIDQQTCYILMVEDALAGVGVLCSEIDPAYEAIFNGSWQPHSQTTYTAIHCVALKSSFQGQGLALVLLRSLVTAARLQGATDIRIDTHPQNLAMQHLIKKAGFVYQGDVILDVNDGERYAYQMILK | not soluble
MEMYFKRMKDEWTGLVEQADPPIRAKAAEIAVAHAHYLSIEFYRIVRIDPHAEEFLSNEQVERQLKSAMERWIINVLSAQVDDVERLIQIQHTVAEVHARIGIPVEIVEMGFRVLKKILYPVIFSSDYSAAEKLQVYHFSINSIDIAMEVMTRAFTFSDSSASKELEHHHHHH | soluble
IEEVYEATLDAIQGALNCDRASILLFDEAGTMRFVAARGLSEHYQRAVDGHSPWITGANEPEPIFVENVDDAEFSRELKESIVGEGIAALGFFPLVTEGRLIGKFMTYYDRPHRFADSEIGMALTIARQLGFSIQRMRAEYARRQAEE | soluble
MSLSESVIADFVGKFNSEVAGRGDPIRGRVVLSQKRLVLAASEDDKLTIPLDSIFDIAVGQVPPDLGDFFDSTVTIAFEHRGKRLVAAIEAGDEKIEKFGTVLFKAIINGTETTVKERARVGGRVTEESFKTAKLFLTPGNVEFRRSDGSFNVDLKTVSDFDRNTREINGKGRPVLTVRHMKDGTAMTTLAAMASNRKMSILGRYLRREYAELMEEIEDVDLTKDKKEVLVAMYSTGDMDGMPLASILGKDSSQVSMILQDLAADGLVQDGSDGPTLTPTGKVVASRHLEDVNAEGHHHHHH | not soluble
MKKEKLRTENISFQYPGAATYALKDVSFSLFEGEWVSVIGQNGSGKSTLAKLLNGLFLPEAGTITVNDTMILSEETVWDVRKQIGMVFQNPDNQFVGTTVQDDVVFGLENIGMPREQMVERLNQALRLVRMEDFLNDEPHSLSGGQKQRVAIAGVLALQPSILILDEATSMLDPQGRREVVETVRQLVNEKGITVLSITHDLEEAAQSDRVIILNKGEILEEGTPEQIFKSSHMLQEIGLDVPFSVKIAELLKRNEILLQNTHLTMESLVNELWRLHSKK | not soluble
MAQSLPPGDIDFQPRKIVFNAPYNEKQVFQIKLINTSALRIAFGINTYMRKLRVDTLCTPRCGVLDPNEHILLAVSCSAFAFGQVDTTNDRITVEWTNTPEGSDKQFCREWLEGEGMVRRKIILIEYNSTPIAPKPTTSSKPLLQATKLGMWLPIGFAASELYDYEKGVPLDRETCEKNLEKLIKNDRDVDYYEWLNLAQQCRTENHKLMEQMALGMAFTSAMANKQHKKVSRKADKDKITGAIVQNKMFSIETAEIWDRVLTLPNRKWFQISDVVTDGEVSNWSSANLVTHVRALARSVFDKVDEADPHMMCYATSQNACIYVPIDKDFFDGFAEYLIGGFGQEQSRDLKLQVRKLVTEVMGNKLNRVRARYNKMYGKDASEEAAKWMREELDKKDGELKECQLIFSKGSKSSYAIEVHGEEEEDLVKSEVLSGDEDVEME | not soluble
MAKDDVIEVEGTVLETLPNAMFKVELENGHVVLAHVSGKIRMNFIRILPGDKVTVELSPYDLNRGRITYRFK | not soluble
MGSDKIHHHHHHMNSELEINLRKLGFSVYEAKVYLTLLNLCNSTMKELSENAEIPYQKVYEVVKSLEDKGLVRVIEGRPKKVKLIDPSISLKVYRDKIVSELDYAIGNVISYWSEKGKGEADRSLHIKGKTIVMRMIRELVDKSNKIKVVWDILPEWLIKILKKYKGNLTVITSSNNLSLNAEVKYVKNIKSKFIIFDDSVLVTFNDQDEIVVDSCRGCVLQAEEHFDLLTYKSE | not soluble
MNPVKNRSEVLFIYDVKWANPNGDPLDENRPRFDEETSRLFVTDVRLKRTVRDYLAECYDETLWVTGEAVVPEDRVKELGIKDVNDACQKCIDIRLFGAVIPQSKKGAMESSITGPVQFRYGTSLHRVKLMTIQGTAAFATENSKQRSFREDQVVPYALIAFYGVINQNSAKFTGLTEEDVSKLLEGIWMGTKNLITRSKMEHNPRLLMRVVYKEGVNYHSGELDYLVKVVSEKEDEEIRDISELKLDVTELKQVLESLKDKIERIEYSVDNRLKLAENGEEKPFEEIFGGFQLVKLEW | not soluble
MKCNMCPRACNVDRNVNTGFCGMTNDIYAARAALHMWEEPCISGEHGSGAVFFSGCTLRCIFCQNSEIAAAQVGKKITVERLSDIFLELQDKCANNINLVTATHFVPQVAEALVKAKNKGLVIPVVYNSSAYENVSTLNMLDGLVDVYLPDMKYIDSRLSAEYSKAPDYADVAKAAIHEMVRQTGKLEFFIEDDELVKSGRVEAGIMKKGVIVRHLVLPGTTKDSKAVIKYLIDTYGDDIYISIMSQYTPFDRLKKHPLLSRKVTRKEYNSVVDYAIDCGINNGFIQEGDVAEESFIPEFDYEGI | not soluble

Reference: the DeepSol protein solubility set
